Series [1] concerns the target T1, Lcc4A (Lentinula edodes, UniProt R9WT55).
T1 construct: full cDNA ORF (527 residues) in pPIC3.5K, secreted from Pichia pastoris GS115 and purified; signal peptide predicted
T1 sequence (R9WT55 18-527): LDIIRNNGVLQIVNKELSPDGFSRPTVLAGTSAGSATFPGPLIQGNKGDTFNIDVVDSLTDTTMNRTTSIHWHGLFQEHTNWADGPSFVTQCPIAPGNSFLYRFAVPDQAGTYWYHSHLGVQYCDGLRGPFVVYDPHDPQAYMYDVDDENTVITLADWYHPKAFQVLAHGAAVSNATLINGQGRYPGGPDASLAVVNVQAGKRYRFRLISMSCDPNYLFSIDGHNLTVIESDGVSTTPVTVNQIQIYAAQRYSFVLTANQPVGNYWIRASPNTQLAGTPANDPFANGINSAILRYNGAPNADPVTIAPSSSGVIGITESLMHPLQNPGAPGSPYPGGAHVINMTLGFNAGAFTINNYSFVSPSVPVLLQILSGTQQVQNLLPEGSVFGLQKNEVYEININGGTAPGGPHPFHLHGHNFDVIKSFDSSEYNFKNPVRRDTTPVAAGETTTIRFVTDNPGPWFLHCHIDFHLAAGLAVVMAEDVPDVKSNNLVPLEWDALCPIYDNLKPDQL
The series is described as follows: ABTS oxidation in presence of co-solvent. It is filed as biochemical. The following applies: 1 mM ABTS, 1x McIlvaine buffer pH 4, 30 °C; co-solvent effect, non-specific. An excerpt:
ABTS oxidation in presence of co-solvent on Lcc4A

Series [2] addresses T2, Lcc7 (Lentinula edodes, UniProt R9WS76).
T2 construct: full cDNA ORF (560 residues) in pPIC3.5K, secreted from Pichia pastoris GS115 and purified; signal peptide predicted
T2 sequence (R9WS76 30-560): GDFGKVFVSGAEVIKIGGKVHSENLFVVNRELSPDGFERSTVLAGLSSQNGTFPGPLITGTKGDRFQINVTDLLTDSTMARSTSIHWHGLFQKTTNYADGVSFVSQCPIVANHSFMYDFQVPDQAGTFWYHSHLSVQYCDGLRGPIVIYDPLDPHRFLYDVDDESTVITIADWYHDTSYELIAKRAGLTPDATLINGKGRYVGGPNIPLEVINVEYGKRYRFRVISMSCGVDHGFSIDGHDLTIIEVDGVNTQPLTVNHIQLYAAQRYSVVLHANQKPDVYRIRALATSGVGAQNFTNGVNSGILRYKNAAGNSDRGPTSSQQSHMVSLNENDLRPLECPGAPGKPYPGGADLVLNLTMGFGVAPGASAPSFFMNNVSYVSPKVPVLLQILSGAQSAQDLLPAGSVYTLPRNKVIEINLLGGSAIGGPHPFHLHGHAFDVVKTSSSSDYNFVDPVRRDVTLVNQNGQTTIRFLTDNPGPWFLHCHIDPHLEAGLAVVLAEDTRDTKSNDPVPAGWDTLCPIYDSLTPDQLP
The series is described as follows: ABTS oxidation in presence of co-solvent. It is filed as biochemical. The settings on record: 1 mM ABTS, 1x McIlvaine buffer pH 4, 30 °C; co-solvent effect, non-specific. The source says: ABTS oxidation in presence of co-solvent on Lcc7

For series [3], the target named is T3, Lcc5 (Lentinula edodes, UniProt R9WU11).
T3 construct: full cDNA ORF (515 residues) in pPIC3.5K, secreted from Pichia pastoris GS115 and purified; signal peptide predicted
T3 sequence (R9WU11 22-515): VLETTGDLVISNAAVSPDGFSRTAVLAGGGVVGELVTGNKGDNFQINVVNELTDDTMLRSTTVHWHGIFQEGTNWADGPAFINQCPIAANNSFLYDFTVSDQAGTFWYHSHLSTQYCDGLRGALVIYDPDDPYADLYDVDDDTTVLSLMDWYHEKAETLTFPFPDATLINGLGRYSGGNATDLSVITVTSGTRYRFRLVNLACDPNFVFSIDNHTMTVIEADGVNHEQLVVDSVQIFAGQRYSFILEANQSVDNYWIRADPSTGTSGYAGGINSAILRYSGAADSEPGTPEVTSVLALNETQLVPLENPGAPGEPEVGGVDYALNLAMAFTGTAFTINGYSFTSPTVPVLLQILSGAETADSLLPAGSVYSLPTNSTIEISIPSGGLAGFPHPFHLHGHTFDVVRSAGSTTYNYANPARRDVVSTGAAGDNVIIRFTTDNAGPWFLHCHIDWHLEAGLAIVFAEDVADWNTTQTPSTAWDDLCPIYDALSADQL
The series is described as follows: ABTS oxidation in presence of co-solvent. The series is classed as biochemical. The settings on record: 1 mM ABTS, 1x McIlvaine buffer pH 4, 30 °C; co-solvent effect, non-specific. The source says:
ABTS oxidation in presence of co-solvent on Lcc5

Substrate in series [4]: COc1ccccc1O
The series is described as follows: purified protein. The following applies: 1x McIlvaine buffer pH 4, 30 °C.

Substrate in series [5]: CCn1c(=NN=c2sc3cc(S(=O)(=O)O)ccc3n2CC)sc2cc(S(=O)(=O)O)ccc21
The series is described as follows: purified protein. The following applies: 1x McIlvaine buffer pH 4, 30 °C. The series is classed as biochemical, Lentinula edodes.

Substrate in series [6]: COc1cccc(OC)c1O
The series is described as follows: spectrophotometric oxidation assay. The settings on record: 1x McIlvaine buffer pH 4, 30 °C. It is filed as biochemical, Lentinula edodes. An excerpt: (§1) spectrophotometric oxidation assay on Lcc7

Substrate in series [7]: Oc1ccccc1O
The series is described as follows: spectrophotometric oxidation assay. The series is classed as biochemical, Lentinula edodes. The settings on record: 1x McIlvaine buffer pH 4, 30 °C.
From the text: as §1

Substrate in series [8]: COc1cccc(OC)c1O
The series is described as follows: spectrophotometric oxidation assay. The following applies: 1x McIlvaine buffer pH 4, 30 °C. The series is classed as biochemical, Lentinula edodes. The source says:
(§2) spectrophotometric oxidation assay on Lcc5
The source holds these as a separate data set.

Substrate in series [9]: N[C@@H](Cc1ccc(O)c(O)c1)C(=O)O
The series is described as follows: spectrophotometric oxidation assay. The series is classed as biochemical, Lentinula edodes. The settings on record: 1x McIlvaine buffer pH 4, 30 °C.
From the text: as §2

Substrate in series [10]: Oc1ccccc1O
The series is described as follows: spectrophotometric oxidation assay. It is filed as biochemical, Lentinula edodes. The following applies: 1x McIlvaine buffer pH 4, 30 °C.
From the text: as §2
This is another data set of the same source.

Substrate in series [11]: COc1cccc(OC)c1O
The series is described as follows: spectrophotometric oxidation assay. It is filed as biochemical, Lentinula edodes. The following applies: 1x McIlvaine buffer pH 4, 30 °C. An excerpt:
(§3) spectrophotometric oxidation assay on Lcc4A
This is another data set of the same source.

Substrate in series [12]: N[C@@H](Cc1ccc(O)c(O)c1)C(=O)O
The series is described as follows: spectrophotometric oxidation assay. It is filed as biochemical, Lentinula edodes. The following applies: 1x McIlvaine buffer pH 4, 30 °C.
From the text: as §3
The source holds these as a separate data set.

Substrate in series [13]: Oc1ccccc1O
The series is described as follows: spectrophotometric oxidation assay. The series is classed as biochemical, Lentinula edodes. The settings on record: 1x McIlvaine buffer pH 4, 30 °C.
From the text: as §3
This is another data set of the same source.

A word on the Km: it is the substrate concentration at which the rate is half of its maximum. The Vmax is the rate approached at saturating substrate.

On to `CO` [MeOH], for which, in series [1], the “IC50 ^d (v/v %) / MeOH” value was 28 v/v %.

For the molecule `CC#N` [ACN], the “IC50 ^d (v/v %) / ACN” value in series [1] was determined as 30 v/v %; in [2], 17 v/v %; in series [3], 18 v/v %.

With `CCO` [EtOH], the “IC50 ^d (v/v %) / EtOH” value in series [2] came to 22 v/v %. The “IC50 ^d (v/v %) / ACN” value in series [3] turned out to be 18 v/v %.

B1: Lcc7 (Lentinula edodes) (protein)
chain: GDFGKVFVSGAEVIKIGGKVHSENLFVVNRELSPDGFERSTVLAGLSSQNGTFPGPLITGTKGDRFQINVTDLLTDSTMARSTSIHWHGLFQKTTNYADGVSFVSQCPIVANHSFMYDFQVPDQAGTFWYHSHLSVQYCDGLRGPIVIYDPLDPHRFLYDVDDESTVITIADWYHDTSYELIAKRAGLTPDATLINGKGRYVGGPNIPLEVINVEYGKRYRFRVISMSCGVDHGFSIDGHDLTIIEVDGVNTQPLTVNHIQLYAAQRYSVVLHANQKPDVYRIRALATSGVGAQNFTNGVNSGILRYKNAAGNSDRGPTSSQQSHMVSLNENDLRPLECPGAPGKPYPGGADLVLNLTMGFGVAPGASAPSFFMNNVSYVSPKVPVLLQILSGAQSAQDLLPAGSVYTLPRNKVIEINLLGGSAIGGPHPFHLHGHAFDVVKTSSSSDYNFVDPVRRDVTLVNQNGQTTIRFLTDNPGPWFLHCHIDPHLEAGLAVVLAEDTRDTKSNDPVPAGWDTLCPIYDSLTPDQLP
notes: full cDNA ORF (560 residues) in pPIC3.5K, secreted from Pichia pastoris GS115 and purified; signal peptide predicted
In the case of B1, the Km in [4] turned out to be 8630 ± 2120 µM; in [5], 36.3 ± 1.9 µM; in [6] it was 12000 ± 1000 µM; in series [7] it was 38800 ± 5300 µM. In addition, the Vmax in [4] was 0.18 µmol/min/mg; in series [5], 19.7 µmol/min/mg; in [6], 1.73 µmol/min/mg; in series [7], 0.53 µmol/min/mg. For the same molecule, the Vmax/Km in [4] is 21.4 µL/min/mg; in series [5], 543000 µL/min/mg; in series [6] it was 144 µL/min/mg; in series [7], 13.8 µL/min/mg.

B2: Lcc5 (Lentinula edodes) (protein)
chain: VLETTGDLVISNAAVSPDGFSRTAVLAGGGVVGELVTGNKGDNFQINVVNELTDDTMLRSTTVHWHGIFQEGTNWADGPAFINQCPIAANNSFLYDFTVSDQAGTFWYHSHLSTQYCDGLRGALVIYDPDDPYADLYDVDDDTTVLSLMDWYHEKAETLTFPFPDATLINGLGRYSGGNATDLSVITVTSGTRYRFRLVNLACDPNFVFSIDNHTMTVIEADGVNHEQLVVDSVQIFAGQRYSFILEANQSVDNYWIRADPSTGTSGYAGGINSAILRYSGAADSEPGTPEVTSVLALNETQLVPLENPGAPGEPEVGGVDYALNLAMAFTGTAFTINGYSFTSPTVPVLLQILSGAETADSLLPAGSVYSLPTNSTIEISIPSGGLAGFPHPFHLHGHTFDVVRSAGSTTYNYANPARRDVVSTGAAGDNVIIRFTTDNAGPWFLHCHIDWHLEAGLAIVFAEDVADWNTTQTPSTAWDDLCPIYDALSADQL
notes: full cDNA ORF (515 residues) in pPIC3.5K, secreted from Pichia pastoris GS115 and purified; signal peptide predicted
Take B2: the Km in [4] was determined as 1270 ± 90 µM; in series [5] it was 325 ± 47 µM; in series [8], 113 ± 8 µM; in series [9] it was 10500 ± 700 µM; in series [10], 6280 ± 680 µM. Further, the Vmax came out at 0.32 µmol/min/mg in series [4]; 2.26 µmol/min/mg in series [5]; 0.6 µmol/min/mg in series [8]; 1.66 µmol/min/mg in [9]; 2.65 µmol/min/mg in series [10]. In addition, the Vmax/Km is 257 µL/min/mg in [4]; 6940 µL/min/mg in series [5]; 5300 µL/min/mg in series [8]; 158 µL/min/mg in [9]; 424 µL/min/mg in series [10].

B3: Lcc4A (Lentinula edodes) (protein)
chain: LDIIRNNGVLQIVNKELSPDGFSRPTVLAGTSAGSATFPGPLIQGNKGDTFNIDVVDSLTDTTMNRTTSIHWHGLFQEHTNWADGPSFVTQCPIAPGNSFLYRFAVPDQAGTYWYHSHLGVQYCDGLRGPFVVYDPHDPQAYMYDVDDENTVITLADWYHPKAFQVLAHGAAVSNATLINGQGRYPGGPDASLAVVNVQAGKRYRFRLISMSCDPNYLFSIDGHNLTVIESDGVSTTPVTVNQIQIYAAQRYSFVLTANQPVGNYWIRASPNTQLAGTPANDPFANGINSAILRYNGAPNADPVTIAPSSSGVIGITESLMHPLQNPGAPGSPYPGGAHVINMTLGFNAGAFTINNYSFVSPSVPVLLQILSGTQQVQNLLPEGSVFGLQKNEVYEININGGTAPGGPHPFHLHGHNFDVIKSFDSSEYNFKNPVRRDTTPVAAGETTTIRFVTDNPGPWFLHCHIDFHLAAGLAVVMAEDVPDVKSNNLVPLEWDALCPIYDNLKPDQL
notes: full cDNA ORF (527 residues) in pPIC3.5K, secreted from Pichia pastoris GS115 and purified; signal peptide predicted
B3: the Km is 648 ± 105 µM in [4]; 26.0 ± 2.4 µM in series [11]; 1040 ± 150 µM in [12]; 255 ± 76 µM in [13]; 11.2 ± 0.9 µM in series [5]. Moreover, the Vmax in series [4] is 0.16 µmol/min/mg; in [11] it was 0.26 µmol/min/mg; in series [12] it was 1.07 µmol/min/mg; in series [13], 0.91 µmol/min/mg; in [5] it was 0.61 µmol/min/mg. For the same molecule, the Vmax/Km in [4] amounted to 246 µL/min/mg; in series [11] it was 10000 µL/min/mg; in series [12] it was 1030 µL/min/mg; in series [13], 3720 µL/min/mg; in [5] it was 54400 µL/min/mg.

The record behind these values is paper PMC3683064 (PLoS ONE, 2013).
